This data set is described as follows: protein stability index of a GFP-peptide fusion (GPS, HEK-293T) (PSI 1-6); higher = more stable. Particulars: c terminus: a fixed tail appended.

The values that follow come from the supplement of paper PMC10567573.

± gives the standard deviation.
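Note: 24-mer peptide tiles fused after GFP, lentivirally expressed, FACS-sorted into six equal bins by GFP/DsRed ratio, decoded by Illumina sequencing, PSI is the read-weighted mean bin number.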

VQVENPERFSSAPCLLGSRVFSQG [TRIM35]: the protein stability index came out at 3.09 ± 0.24 (treatment: DMSO) and 3.2 ± 0.22 (treatment: MLN4924 1 uM, 8 h).

In the case of VRDSDSLAESEFESAAFSQGSRSG [PHTF1], the protein stability index by setting is: (treatment: DMSO) 5.15 ± 0.26; (treatment: MLN4924 1 uM, 8 h) 5.13 ± 0.28.

For the sequence VRVCDLLLKKKPPQQQHHKAKRNR [ANKRD17], the protein stability index (treatment: DMSO) was found to be 3.33 ± 0.39 and the protein stability index (treatment: MLN4924 1 uM, 8 h) came out at 3.38 ± 0.22.

With VSLGLGQPWHAVMDIESLSVFTEP [FBXO33], the protein stability index runs as follows: (treatment: DMSO) 2.31 ± 0.56; (treatment: MLN4924 1 uM, 8 h) 1.99 ± 0.26.

Turning to VSNTPLRTVDGSPMMKAAMYSVEI [PALM], the protein stability index (treatment: DMSO) stood at 2.27 ± 0.4 and the protein stability index (treatment: MLN4924 1 uM, 8 h) is 2.42 ± 0.17.

As to VSPGSPPPPLPNHKYNTTSTSYSP [PLAGL1], the protein stability index is 4.27 ± 0.15 (treatment: DMSO) and 4.21 ± 0.27 (treatment: MLN4924 1 uM, 8 h).

Regarding VSTRLTVLREDQIPRGFPTIDMGP [PTPRD], the protein stability index stood at 2.33 ± 0.47 (treatment: DMSO) and 2.53 ± 0.18 (treatment: MLN4924 1 uM, 8 h).

Take VTDKTLLICKYDFIMLSCVQLQRI [TPRG1]: the protein stability index is, setting by setting: (treatment: DMSO) 3.35 ± 0.84; (treatment: MLN4924 1 uM, 8 h) 3.48 ± 0.72.

VTFGNKQKVLGKALSLIRFPLMTI [BTBD1]: the protein stability index is, setting by setting: (treatment: DMSO) 2.4 ± 0.041; (treatment: MLN4924 1 uM, 8 h) 2.4 ± 0.75.

With VTPAQNNLLQPNFEAAFGTTPSTS [SNAP91], the protein stability index amounted to 4.52 ± 0.13 (treatment: DMSO) and 4.62 ± 0.14 (treatment: MLN4924 1 uM, 8 h).

Take VTSYCRSATLVGFTVGSVLGQILV [SLC19A2]: the protein stability index is, setting by setting: (treatment: DMSO) 3.5 ± 0.39; (treatment: MLN4924 1 uM, 8 h) 2.84 ± 0.6.

As for VVKYRRPMDVYETGIEYIVAQGPT [ADAMTSL2], the protein stability index reads like this: (treatment: DMSO) 2.13 ± 0.5; (treatment: MLN4924 1 uM, 8 h) 2.25 ± 0.46.

As to VVLCFSIANPNSLNHVKSMWYPEI [RHOBTB1], the protein stability index reads like this: (treatment: DMSO) 4.05 ± 0.91; (treatment: MLN4924 1 uM, 8 h) 3.6 ± 0.21.

In the case of VVNSHSLSLLGKLTISAAFNIVYI [SLC22A15], the protein stability index runs as follows: (treatment: DMSO) 3.07 ± 0.43; (treatment: MLN4924 1 uM, 8 h) 3.09 ± 0.64.

Take VVTRVVTGVYPRCLHASQWPVCAA [BRF1]: the protein stability index is 2.54 ± 0.51 (treatment: DMSO) and 2.75 ± 0.23 (treatment: MLN4924 1 uM, 8 h).

Turning to VWYYCTLTIRESILINNGSRIKGW [TMEM120A], the protein stability index reads like this: (treatment: DMSO) 3.08 ± 0.61; (treatment: MLN4924 1 uM, 8 h) 2.96 ± 0.36.

For the sequence VYHIECFRCSVCSRQLLPGDEFSL [ISL2], the protein stability index is, setting by setting: (treatment: DMSO) 2.34 ± 0.14; (treatment: MLN4924 1 uM, 8 h) 2.4 ± 0.23.

In turn, WADAAGEAVPEGPDGGGPWLEDEP [ZSWIM9] displayed a protein stability index (treatment: DMSO) of 5.62 ± 0.34 and a protein stability index (treatment: MLN4924 1 uM, 8 h) of 5.26 ± 0.47.

On to WEEWQFLSPAQKDLYRDVMLENYS [ZNF649], for which the protein stability index is, setting by setting: (treatment: DMSO) 3.48 ± 0.35; (treatment: MLN4924 1 uM, 8 h) 3.6 ± 0.2.

Sequence WEKVGSGGFGQVYKVRHVHWKTWL [RIPK4] returned a protein stability index (treatment: MLN4924 1 uM, 8 h) of 2.24 ± 0.21.

For WEPFDWGRLLEALCREEPVVQGPD [FANCE], the protein stability index by setting is: (treatment: DMSO) 3.001 ± 0.014; (treatment: MLN4924 1 uM, 8 h) 3.22 ± 0.23.

WFIHLVFVVLAFLTGVLCSYPNPN [TMEM192] gave a protein stability index (treatment: DMSO) of 3.346 ± 0.002 and a protein stability index (treatment: MLN4924 1 uM, 8 h) of 2.89 ± 0.56.

Take WKERDEYITKVSEEVTRLGAQVKE [TRIM15]: the protein stability index runs as follows: (treatment: DMSO) 4.69 ± 0.23; (treatment: MLN4924 1 uM, 8 h) 4.22 ± 0.42.

WLQKLCCPCCFGRDCLVLNQGYLS [PI4K2A] displayed a protein stability index (treatment: DMSO) of 2.4 ± 0.45 and a protein stability index (treatment: MLN4924 1 uM, 8 h) of 2 ± 0.24.

Turning to WNPDARYSEHFLQEAKLLHWNGRH [GLT8D2], the protein stability index (treatment: DMSO) was found to be 2.81 ± 0.21 and the protein stability index (treatment: MLN4924 1 uM, 8 h) came to 2.67 ± 0.27.

For the sequence YANGGLNYSYRGYGALSSNLQPPA [NOL4L], the protein stability index is, setting by setting: (treatment: DMSO) 2.49 ± 0.36; (treatment: MLN4924 1 uM, 8 h) 2.94 ± 0.35.

Regarding YDDDIDDEDEEEEDADCYDDDDSG [UBE2R2], the protein stability index stood at 5.58 ± 0.11 (treatment: DMSO) and 5.61 ± 0.24 (treatment: MLN4924 1 uM, 8 h).

For the sequence YEDGTELTEDYFPSVPDNAELVLL [DFFB], the protein stability index was found to be 3.52 ± 0.36 (treatment: DMSO) and 3.7 ± 0.23 (treatment: MLN4924 1 uM, 8 h).

Regarding YEDIRRENPVGTFHCSMSPGNLEK [PTPN9], the protein stability index reads like this: (treatment: DMSO) 4.58 ± 0.23; (treatment: MLN4924 1 uM, 8 h) 4.73 ± 0.13.

For YEFHLEFLDLVKPEPVYKLTQRQV [HACD3], the protein stability index was found to be 2.54 ± 0.63 (treatment: DMSO) and 2.12 ± 0.076 (treatment: MLN4924 1 uM, 8 h).

In turn, YERPNVETIKCVVVGDNAVGKTRL [RHOBTB1] came in with a protein stability index (treatment: DMSO) of 3.71 ± 0.23 and a protein stability index (treatment: MLN4924 1 uM, 8 h) of 3.86 ± 0.21.

Regarding YFFLCQPFREILCKKLHIPLKAQN [P2RY14], the protein stability index was 2.62 ± 0.75 (treatment: DMSO) and 1.99 ± 0.25 (treatment: MLN4924 1 uM, 8 h).

With YHYGVASCEACKAFFKRTIQGNIE [ESRRG], the protein stability index by setting is: (treatment: DMSO) 2.43 ± 0.19; (treatment: MLN4924 1 uM, 8 h) 2.65 ± 0.58.

As to YIQSRADTMQNIESTIVELGSIFQ [STX5], the protein stability index by setting is: (treatment: DMSO) 2.33 ± 0.2; (treatment: MLN4924 1 uM, 8 h) 2.62 ± 0.29.

In the case of YISRKYFATRPGAIETAMEDLKGH [TPRG1], the protein stability index runs as follows: (treatment: DMSO) 2.73 ± 0.41; (treatment: MLN4924 1 uM, 8 h) 2.81 ± 0.43.

With YLATAKVLITVEDVNDNSPELTIT [PCDHGA10], the protein stability index is, setting by setting: (treatment: DMSO) 2.49 ± 0.2; (treatment: MLN4924 1 uM, 8 h) 2.44 ± 0.22.

As for YLGLVRTHINAVVAKIQAKIPGAK [RTN1], the protein stability index is, setting by setting: (treatment: DMSO) 2.35 ± 0.29; (treatment: MLN4924 1 uM, 8 h) 2.06 ± 0.54.
